These results are taken from US5066590A, “Superoxide dismutase combined with a poly(alkylene oxide)” (Ajinomoto Co., Inc., priority 1985, dated 1991).

Series [1] is described as follows: Survival of SOD activity in the blood circulation (plasma SOD activity after i.v. infusion). The class given is in vivo, Wister rats. Conditions: for Half life (half survival time of SOD activity in the circulation) / Time to 30% residual activity: 20 mg SOD content/kg, femoral vein, rats. The procedure: For each stabilized SOD obtained in the Examples, the survival time in the blood circulation was measured as follows. Four Wister rats, seven weeks old and weighing 249 to 277 g, were used for each sample. The rats were infused with 20 mg of the sample (20 mg SOD content for the modified SOD; 5 mg per rat) dissolved in a saline solution (0.5 ml per rat) per kg of body weight through the femoral vein, and samples of blood, each 0.2 ml, were withdrawn 5, 15 and 30 minutes and 1, 2, 4, 8, 24 and 48 hours after the injection. Each blood sample was centrifuged, and the SOD activity of the plasma was determined by the method of J. M. McCord et al (J. Biol. Chem.,.244, No. 22, 6049-55, 1969).

Series [2] deals with superoxide dismutase. Conditions: starting material as purchased; cited from earlier work.
In series [3] the target is superoxide dismutase (Bos taurus, UniProt P00442). The series is described as follows: SOD enzyme activity by the method of McCord et al (residual activity vs starting SOD). Format: biochemical, bovine; human. How it is done:
(§1) The residual activity was obtained by the following method.
(§2) The concentration of each enzyme was obtained by the absorption method as mentioned above, and the residual activity was calculated from a comparison in activity after the reaction.

The test system of series [4] is superoxide dismutase. The series is described as above. Format: biochemical, bovine; human. How it is done:
as §1, §2

In series [5] the test system is Lewis-lung tumor. In words: Prevention of tumor metastasis (Lewis-lung tumor implanted in mice). The class given is in vivo, C57BL-6 mice. Conditions: for Inhibition ratio (%) (number of tumor colonies) / Inhibition ratio (%) (weight of lung tumor) / Mean number of tumor colonies / Mean weight of lung tumor: 2 mg/kg i.v. The procedure:
10^6 cells of Lewis-lung tumor were implanted onto the foot of a number of C57BL-6 mice, and the implanted tumor was removed at seventh day after the transplantation (n=7).
The modified SOD (m-SOD) obtained in Example 1 was dissolved in a saline solution (5 mg by SOD content in 1 ml saline solution). To the mice, the modified SOD solution (2 mg by SOD content per kg) was injected intravenously once a day for 5 days from the seventh day or fourteenth day after the transplantation.
On the 22nd day after the transplantation, the lungs were taken out and the number of colonies of metastasizing cells was determined. The inhibition of the metastasis was evaluated by the decrease of the number of colonies and the weight of metastasizing lung tumor.

Chain of superoxide dismutase (Bos taurus, UniProt P00442) (P00442 2-152 limits assumed): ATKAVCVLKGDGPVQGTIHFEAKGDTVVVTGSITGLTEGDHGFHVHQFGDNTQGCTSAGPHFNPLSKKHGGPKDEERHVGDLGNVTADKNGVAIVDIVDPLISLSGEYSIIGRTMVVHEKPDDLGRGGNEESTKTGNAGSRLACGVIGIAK

As for “human SOD: SOD derived from human erythrocyte purchased from Sigma Co.”, in series [1], the “Half life (half survival time of SOD activity in the circulation)” value (“Half life” below) amounted to 6 min and the “Time to 30% residual activity” value was 0.15 h. For the same substance, the “specific activity of purchased SOD” value in series [2] is 2300 units/mg.
The substance “Example 1: bovine SOD amide-linked to α-carboxymethyl, ω-carboxymethoxy polyoxyethylene (molecular weight about 4000), 2.4 molecules per enzyme” displayed a total activity in series [3] (freeze-dried stabilized SOD) of 236000 units. The total activity in series [3] (reaction mixture after completion of the reaction) is 285000 units. Also, the residual activity in series [3] (reaction mixture after completion of the reaction, in comparison with the original SOD) was found to be 95±5%. The “Residual enzyme activity (%)” value in series [4] (Table 1, stabilized SOD of Examples) turned out to be 95%. In addition, in series [4] (isolated stabilized SOD, text of Examples), the residual activity was 95%. Moreover, in series [1], the “Half life” value amounted to 240 min and the “Time to 30% residual activity” value stood at 10 h. Further, the “activity in the blood circulation with time” value in series [1] (FIG. 5) is “rapidly reduces after a few hours from the adminstration, and then it reduces slowly”. For the same substance, in series [5] (5 injections after 7th day), the “Inhibition ratio (%) (number of tumor colonies)” value was 65%, the “Inhibition ratio (%) (weight of lung tumor)” value turned out to be 66%, the “Mean number of tumor colonies” value was 10.5 and the “Mean weight of lung tumor” value is 0.15 g. In series [5] (5 injections after 14th day), the “Inhibition ratio (%) (number of tumor colonies)” value was determined as 72%, the “Inhibition ratio (%) (weight of lung tumor)” value was 77%, the “Mean number of tumor colonies” value is listed as 8.4 and the “Mean weight of lung tumor” value is on record as 0.10 g. Besides, in series [5] ("decreased below 40%"), the “number of colonies as compared to the non-treated mice” value is listed as “below 40%” and the “weight of tumor as compared to the non-treated mice” value is “below 40%”.
In the case of “bovine SOD: Superoxide dismutase derived from a bovine blood produced by Toyobo Co., Japan”, in series [1], the “Half life” value was found to be 6 min and the “Time to 30% residual activity” value is 0.15 h. The “specific activity of purchased SOD” value in series [2] is reported as 3000 units/mg.

As usually defined, the residual activity is what remains of the control signal, in per cent.
